Results reported in the supplement of paper PMC7877785.
± gives the uncertainty stated by the source.

Experiment: self-splicing fitness, log relative to wild type (ln ratio); higher = more splicing; Tetrahymena group I intron in knt gene, E. coli kanamycin selection, DiMSum; sequences stand for … in CUCUCU…GGAGGGAAAAGUUAUCAGGCAUGCACCUGGUAGCUAGUCUUUAAACCAAUAGAUUGCAUCGGUUUAAAAGGCAAGACCGUCAAAUUGCGGGAAAGGGGUCAACAGCCGUUCAGUACCAAGUCUCAGGGGAAACUUUGAGAUGGCCUUGCAAAGGGUAUGGUAAUAAGCUGACGGACAUGGUCCUAACCACGCAGCCAAGUCCUAAGUCAACAGAUCUUCUGUUGAUAUGGAUGCAGUUCACAGACUAAAUGUCGGUCGGGGAAGAUGUAUUCUUCUCAUAAGAUAUAGUCGGACCUCUCCUUAAUGGGAGCUAGCGGAUGAAGUGAUGCAACACUGGAGCCGCUGGGAACUAAUUUGUAUGCGAAAGUAUAUUGAUUAGUUUUGGAGUACUCGUGGUCG
Outline: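 A randomised library covering all eight P1ex-region intron nucleotides was built with the intron in the knt kanamycin-resistance gene on pET-22b(+) and held in E. coli BL21(DE3). Cells were grown overnight at 37°C or 30°C on LB agar, with or without 25 μg/mL kanamycin, plus 100 μg/mL carbenicillin, 50 μM IPTG and 0.2% rhamnose, and pooled colonies were amplicon-sequenced on an Illumina HiSeq 2500. DiMSum fitness is the error-weighted combination of wild-type-normalised replicate fold changes, kanamycin versus none.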

Row | Sequence | self-splicing fitness (ln) (30 °C) | self-splicing fitness (ln) (37 °C)
1 | GUUUAGCAAUAUUACGGGAU | -2.57 ± 0.14 | -1 ± 0.15
2 | UAGAAGCAAUAUUACGGAAU | -2.11 ± 0.18 | -2.38 ± 0.36
3 | AGUUAGCAAUAUUACGAGAU | -2.15 ± 0.18 | -1.17 ± 0.16
4 | CCAUAGCAAUAUUACGAUGG | -3.35 ± 0.17 | -2.38 ± 0.18
5 | GAAUAGCAAUAUUACGAACC | 0.0666 ± 0.21 | 0.816 ± 0.24
6 | ACGUAGCAAUAUUACGCGGC | -3.01 ± 0.22 | -2.47 ± 0.42
7 | CCCAAGCAAUAUUACGACCG | -3.32 ± 0.24 | -3.03 ± 0.47
8 | CUCAAGCAAUAUUACGUGUA | -2.47 ± 0.13 | -1.91 ± 0.11
9 | UUGGAGCAAUAUUACGCGUC | -4.81 ± 0.29 | -2.77 ± 0.24
10 | CUUGAGCAAUAUUACGGGAG | -3.95 ± 0.22 | -3.25 ± 0.26
11 | GAGGAGCAAUAUUACGGUCA | -2.76 ± 0.21 | -2.19 ± 0.21
12 | UAAGAGCAAUAUUACGUCGG | -3.8 ± 0.29 | -2.25 ± 0.27
13 | UUUGAGCAAUAUUACGAGUU |  | -1.87 ± 0.42
14 | ACUUAGCAAUAUUACGACAA | -1.55 ± 0.17 | -0.888 ± 0.28
15 | GUUAAGCAAUAUUACGUUAA | -2.24 ± 0.17 | -1.79 ± 0.17
16 | AUAGAGCAAUAUUACGCAAG | -2.97 ± 0.2 | -1.24 ± 0.22
17 | CUGUAGCAAUAUUACGCUGA | -1.34 ± 0.16 | -3.78 ± 0.29
18 | CCACAGCAAUAUUACGUCCC | -3.18 ± 0.43 | -2.06 ± 0.4

Row | Sequence | self-splicing fitness (ln) (30 °C) | self-splicing fitness (ln) (37 °C)
19 | UAGUAGCAAUAUUACGCUCC | -2.38 ± 0.45 | -0.239 ± 0.45
20 | GGUGAGCAAUAUUACGCCAG | -2.86 ± 0.47 | 
21 | AACUAGCAAUAUUACGGAUG | -2.26 ± 0.067 | -1.03 ± 0.072
22 | AAAUAGCAAUAUUACGCAGG | -1.68 ± 0.12 | -1.65 ± 0.11
23 | ACAGAGCAAUAUUACGCCAC | -2.45 ± 0.38 | -1.33 ± 0.43
24 | AUCGAGCAAUAUUACGUUUG | -4.29 ± 0.3 | -2.05 ± 0.21
25 | GGCUAGCAAUAUUACGAUUU | -0.855 ± 0.093 | 0.68 ± 0.12
26 | GUCGAGCAAUAUUACGAGGG |  | -1.04 ± 0.21
27 | GGGUAGCAAUAUUACGCUUC | -2.91 ± 0.25 | 
28 | AAUGAGCAAUAUUACGUGCU | -3.93 ± 0.36 | -2.44 ± 0.25
29 | CCAAAGCAAUAUUACGGUUA | -2.46 ± 0.12 | -2.48 ± 0.14
30 | AAAGAGCAAUAUUACGAGUA | -3.87 ± 0.46 | -2.58 ± 0.28
31 | UUCCAGCAAUAUUACGUGUG | -0.736 ± 0.04 | -0.164 ± 0.055
32 | GGCUAGCAAUAUUACGGGCU |  | -3.05 ± 0.3
33 | AUCAAGCAAUAUUACGGCAC | -1.67 ± 0.1 | -0.0454 ± 0.16
34 | CAGCAGCAAUAUUACGCUGA | -3.02 ± 0.22 | -2.09 ± 0.18
35 | CCUCAGCAAUAUUACGCUCU | -4.29 ± 0.43 | 
